Test results taken from US20250197448A1 (published 2025).
One block for each binder: values may come before it. Starred links: 1 amine or outer side, 2 acyl side, 3 side chain; linkers in the order of their positions; H or OH if unused. Positions of bridges follow the written chain, without caps; N, C: chain ends. Non-standard residues stand in square brackets, D forms with d. No end group written: not given here. O2beY = O-(2-bromoethyl)-tyrosine (p-2beF), reacts with Cys to form a thioether, O=C([C@H](Cc1ccc(OCCBr)cc1)N[*:1])[*:2]; pCaaF = p-(2-chloroacetamido)-phenylalanine, O=C(CCl)Nc1ccc(C[C@H](N[*:1])C(=O)[*:2])cc1

Columns and labels:
[1] = molecular target: T1, PD-L1 (Programmed Death-Ligand 1), recombinant, His-tagged (human, UniProt Q9NZQ7 18-134); assay: in vitro PD-L1 binding assay
T1 chain: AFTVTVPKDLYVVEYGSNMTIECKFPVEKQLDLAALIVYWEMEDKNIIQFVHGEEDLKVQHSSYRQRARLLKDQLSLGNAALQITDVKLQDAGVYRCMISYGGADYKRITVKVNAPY

Sonic Hedgehog (Shh) = Sonic Hedgehog (Shh) (human, UniProt Q15465 24-197); assay: immobilized Shh binding assay; FIG. 13C
Indian Hedgehog (Ihh) = Indian Hedgehog (Ihh) (human, UniProt Q14623 28-202); assay: immobilized Ihh binding assay; FIG. 13C
Chain of Indian Hedgehog (Ihh) (Q14623 28-202): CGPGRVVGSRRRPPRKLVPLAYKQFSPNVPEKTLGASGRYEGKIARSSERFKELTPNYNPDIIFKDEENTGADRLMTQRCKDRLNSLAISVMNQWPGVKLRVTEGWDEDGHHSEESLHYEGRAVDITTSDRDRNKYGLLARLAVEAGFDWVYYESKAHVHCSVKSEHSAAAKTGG

Desert Hedgehog (Dhh) = Desert Hedgehog (Dhh) (human, UniProt O43323 23-198); assay: immobilized Dhh binding assay; FIG. 13C
[2] = molecular target: T1, PD-L1 (Programmed Death-Ligand 1), …; assay: in vitro PD-L1 binding assay; FIG. 15A
[3] = molecular target: T1, PD-L1 (Programmed Death-Ligand 1), …; assay: in vitro PD-L1 binding assay
cRK10(pCmF) = assay: in vitro PD-L1 binding assay
cCLP002(pCmF) = assay: in vitro PD-L1 binding assay
cCLP002(pCaaF) = assay: in vitro PD-L1 binding assay

B1: FLAG-cRK10-EAAAK-Tras-Fc-His (Fc fusion)
chain: DYKDDDDKGSGSTYLCGAISLA[pCaaF]KAQIKESLEAAAK-{Fc-H6}
modifications: thioether 16-23
- Kd [1]: 88 nM

- Kd (Sonic Hedgehog (Shh)): 8 nM
- Kd (Indian Hedgehog (Ihh)): 8 nM
- Kd (Desert Hedgehog (Dhh)): 9 nM
B2: L2-m5-Tras-Fc (Fc fusion)
chain: DYKDDDDKGSGSTLSW[O2beY]EAMDMCTSSQQQQQQ-{Fc-H6}
modifications: thioether 17-23; also: dimeric through the Fc

B3: cyclic peptide cRK10 (pCaaF) (peptide)
chain: TYLCGAISLA[pCaaF]KAQIKESL
modifications: thioether 4-11
- Kd [2]: 12000 nM

B4: FLAG-cRK10-PAPAP-Tras-Fc-His (Fc fusion)
chain: DYKDDDDKGSGSTYLCGAISLA[pCaaF]KAQIKESLPAPAP-{Fc-H6}
modifications: thioether 16-23
- Kd [1]: 90 nM

B5: cCLP003 (pCaaF)-Tras-Fc (Fc fusion)
chain: DYKDDDDKGSGSWHFS[pCaaF]NWRWLPCQQQQQQ
modifications: thioether 17-24 (inferred); not fully specified (C-terminus)
- Kd [3]: 238 nM

- Kd (cRK10(pCmF)): > 100000 nM
- Kd (cCLP002(pCmF)): > 15000 nM
- Kd (cCLP002(pCaaF)): 87000 nM
B6: PD-L1 (ligand)
chain: T1 chain

B7: FLAG-cRK10-(GS)3-Tras-Fc-His (Fc fusion)
chain: DYKDDDDKGSGSTYLCGAISLA[pCaaF]KAQIKESLGSGSGS-{Fc-H6}
modifications: thioether 16-23
- Kd [1]: 88 nM
